Substitutions are numbered along the chain they refer to.

Holding throughout (assay): FACS
Background: In flow cytometry, cells or beads pass a laser one at a time.

Test [1] deals with T1, human Clec7A (human, UniProt Q9BXN2).
T1 chain: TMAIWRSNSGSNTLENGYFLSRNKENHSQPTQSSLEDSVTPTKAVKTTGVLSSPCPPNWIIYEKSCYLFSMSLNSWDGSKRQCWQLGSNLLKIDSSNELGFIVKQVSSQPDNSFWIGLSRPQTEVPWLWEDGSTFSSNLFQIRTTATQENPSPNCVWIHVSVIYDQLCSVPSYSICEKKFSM

The target of test [2] is T2, human CD94 (human, UniProt Q13241).
T2 chain: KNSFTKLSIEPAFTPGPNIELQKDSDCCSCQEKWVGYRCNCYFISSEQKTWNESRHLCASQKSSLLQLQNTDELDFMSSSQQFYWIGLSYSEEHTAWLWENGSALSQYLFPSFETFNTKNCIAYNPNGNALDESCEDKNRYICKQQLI

The target of test [3] is T3, human KLRF1 (human, UniProt Q9NZS2).
T3 chain: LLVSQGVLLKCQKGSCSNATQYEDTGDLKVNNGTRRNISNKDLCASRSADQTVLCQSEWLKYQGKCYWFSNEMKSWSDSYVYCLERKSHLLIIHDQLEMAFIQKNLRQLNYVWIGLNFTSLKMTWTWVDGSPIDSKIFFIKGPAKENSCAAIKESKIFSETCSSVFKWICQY

Test [4] addresses T4, human KLRG1 (human, UniProt Q96E93).
T4 chain: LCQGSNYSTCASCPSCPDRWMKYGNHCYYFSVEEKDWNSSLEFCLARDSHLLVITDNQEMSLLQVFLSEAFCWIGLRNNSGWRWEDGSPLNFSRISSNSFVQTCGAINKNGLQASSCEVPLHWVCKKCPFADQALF

Test [5] has as its target human Clec9A (human, UniProt Q6UXN8).
The target in test [6] is T5, human Clec10A (human, UniProt Q8IUN9).
T5 chain: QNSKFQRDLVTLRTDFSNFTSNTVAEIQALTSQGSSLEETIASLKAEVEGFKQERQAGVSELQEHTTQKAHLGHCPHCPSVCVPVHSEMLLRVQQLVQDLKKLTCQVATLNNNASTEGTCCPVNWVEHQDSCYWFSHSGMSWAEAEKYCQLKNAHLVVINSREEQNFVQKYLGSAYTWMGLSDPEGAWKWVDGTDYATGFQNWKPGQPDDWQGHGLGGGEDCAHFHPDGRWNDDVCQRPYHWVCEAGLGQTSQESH

The target of test [7] is T6, human Clec5A (human, UniProt Q9NY25).
T6 chain: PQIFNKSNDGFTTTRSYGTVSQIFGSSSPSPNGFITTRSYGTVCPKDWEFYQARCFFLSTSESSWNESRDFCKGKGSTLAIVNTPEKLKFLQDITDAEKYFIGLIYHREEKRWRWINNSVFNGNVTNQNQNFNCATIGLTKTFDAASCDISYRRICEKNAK

Test [8] addresses T7, human Clec4E (human, UniProt Q9ULY5).
T7 chain: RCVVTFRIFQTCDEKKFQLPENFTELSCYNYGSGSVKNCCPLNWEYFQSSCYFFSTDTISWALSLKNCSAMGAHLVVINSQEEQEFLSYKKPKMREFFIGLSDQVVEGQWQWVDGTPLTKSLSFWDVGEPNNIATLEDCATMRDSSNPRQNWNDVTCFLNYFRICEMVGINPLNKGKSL

The target in test [9] is T8, human Clec12B (human, UniProt Q2HXU8).
T8 chain: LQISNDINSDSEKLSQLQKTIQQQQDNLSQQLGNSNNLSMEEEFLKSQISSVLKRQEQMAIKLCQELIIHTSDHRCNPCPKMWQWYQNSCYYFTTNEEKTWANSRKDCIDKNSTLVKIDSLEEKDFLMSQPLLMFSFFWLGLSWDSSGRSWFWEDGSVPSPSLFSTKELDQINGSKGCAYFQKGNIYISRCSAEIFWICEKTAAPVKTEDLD

The target of test [10] is T9, human CD209 (human, UniProt Q9NNX6).
T9 chain: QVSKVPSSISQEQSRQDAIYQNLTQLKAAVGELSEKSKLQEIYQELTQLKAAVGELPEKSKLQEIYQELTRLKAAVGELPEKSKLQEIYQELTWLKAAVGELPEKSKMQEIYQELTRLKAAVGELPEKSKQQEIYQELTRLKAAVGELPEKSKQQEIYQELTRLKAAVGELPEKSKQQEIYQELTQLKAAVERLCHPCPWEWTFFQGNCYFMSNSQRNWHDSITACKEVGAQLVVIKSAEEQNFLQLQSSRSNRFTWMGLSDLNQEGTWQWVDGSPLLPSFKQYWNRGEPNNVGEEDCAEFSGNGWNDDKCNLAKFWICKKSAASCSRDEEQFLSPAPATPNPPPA

Test [11] concerns the target T10, human KLRF2 (human, UniProt D3W0D1).
T10 chain: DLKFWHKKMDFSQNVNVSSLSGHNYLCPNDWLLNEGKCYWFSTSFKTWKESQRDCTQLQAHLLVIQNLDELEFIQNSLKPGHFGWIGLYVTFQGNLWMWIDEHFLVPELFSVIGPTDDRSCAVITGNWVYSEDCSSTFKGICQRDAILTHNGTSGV

For test [12], the target named is human CD161 (human, UniProt Q12918).

Sequence of human Clec9A (Q6UXN8 57-241): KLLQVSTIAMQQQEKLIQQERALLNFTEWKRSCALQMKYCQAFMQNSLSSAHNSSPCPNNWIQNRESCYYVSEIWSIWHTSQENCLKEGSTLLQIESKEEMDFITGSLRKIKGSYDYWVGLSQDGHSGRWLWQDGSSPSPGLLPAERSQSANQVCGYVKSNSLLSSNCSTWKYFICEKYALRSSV

B1: KM12.4.7 (antibody)
chain 1: EVQLVESGGGLVQPGGSLRLPCAASGFTFSSYAMSWIRQAPGKGLEWVSAISGSGGSIYYADSVKGRFTISRDNSKNTLYLQMDSLRAEDTAVYYCARGYSDSYFYGPYYTFDYWGQGTLVTVSS
chain 2: not shown
Turning to B1, the binding result in [1], in test [2], in [3], in test [4], in test [5] and in [6] was “no binding” in each case. Also, the binding result in test [7], in [8], in test [9], in [10] and in test [11] was “no binding” each time.

B2: KW1.3.12 (antibody)
chain 1: EVQLVESGGGLVQPGGSLRLSCAASGFTFSSYAMSWVRQAPGKGLEWVSTISGSGGSTYYADSVKGRFTISRDNSRNTLYLQMNSLRAEDTAVYYCARGGLIPSGFDYWGQGTLVTVSS
chain 2: DIQMTQSPSSLSASVGDRVTITCRASQSISSYLNWYQQKPGKAPKLLIYAASSLLSGVPSRFSGSGSGTDFTLTISSLQPEDFATYYCQQTYSAPLTFGQGTKVEIK
For B2, the binding result in test [1], in test [2], in [3], in test [4], in test [5] and in [6] was “no binding” each time. For the same molecule, the binding result in test [7], in [8], in [9], in [10] and in [11] was “no binding” each time.

B3: KW1.2.1 (antibody)
chain 1: B2 chain 1 with F27S
chain 2: B2 chain 2 with S65G, A94T
As a reminder, the Kd is the constant that tells how readily two partners part at equilibrium. A lower Kd goes with higher affinity. In the case of B3, the equilibrium dissociation constant (Kd) in test [12] came to 0.233 nM.

B4: KW7.3.7 (antibody)
chain 1: B2 chain 1 with T50A, I51T, V64A, R76K, L101Y, I102L, S104D, G105A, Q111R
chain 2: B2 chain 2 with R24W, K39E, L55Q, A94T
Regarding B4, the binding result in test [1], in test [2], in test [3], in test [4], in test [5] and in [6] was “no binding” throughout. Also, the binding result in test [7], in [8], in test [9], in test [10] and in test [11] was “no binding” each time.

The values are drawn from US11459389 (dated 2022).
